The text below walks through data of article PMC12746075, “Twinfilin modulates tissue contractility through uncapping of capping protein in C. elegans” (Development (Cambridge, England), 2025).

This assay addresses T1, biotinylated SNAP-tagged C. elegans heterodimeric capping protein (CAP-1 and CAP-2) (C. elegans, UniProt P34685 1-282; P34686 1-270, biotin (benzylguanine-biotin on the SNAP tag; subunit that carries the tag not stated) | biotin (benzylguanine-biotin on the SNAP tag; subunit that carries the tag not stated)).
T1 construct: CAP-1, capping protein subunit of C. elegans; CAP-2, capping protein subunit of C. elegans; only one SNAP tag is meant for the heterodimer; also called CP; SNAP-CP; source: E. coli BL21 DE3, purified (HisTrap, size-exclusion chromatography Superose 6), labeled with benzylguanine-biotin; not shown: His tag (from the HisTrap chromatography)
T1 sequence (looked up) 1: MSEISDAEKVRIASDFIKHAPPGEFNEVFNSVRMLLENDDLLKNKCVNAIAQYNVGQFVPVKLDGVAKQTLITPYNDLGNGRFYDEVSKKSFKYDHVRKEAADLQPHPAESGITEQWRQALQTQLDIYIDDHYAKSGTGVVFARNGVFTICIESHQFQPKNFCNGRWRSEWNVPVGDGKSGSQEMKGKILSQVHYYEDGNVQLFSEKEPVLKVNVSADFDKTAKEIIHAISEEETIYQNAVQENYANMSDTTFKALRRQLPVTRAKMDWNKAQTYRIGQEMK
T1 sequence (looked up) 2: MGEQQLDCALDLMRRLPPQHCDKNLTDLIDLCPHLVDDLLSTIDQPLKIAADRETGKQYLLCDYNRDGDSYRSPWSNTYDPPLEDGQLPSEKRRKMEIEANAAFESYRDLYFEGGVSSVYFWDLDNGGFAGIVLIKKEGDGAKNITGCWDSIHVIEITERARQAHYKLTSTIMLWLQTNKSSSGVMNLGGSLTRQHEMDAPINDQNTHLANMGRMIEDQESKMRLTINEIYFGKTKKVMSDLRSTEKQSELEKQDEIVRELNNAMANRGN
As to the kind of experiment: microfluidics-assisted TIRF microscopy (filament capture and uncapping); biotinylated SNAP-CP anchored to the coverslip surface, preformed Alexa-488-labeled ADP-actin filaments captured; filament detachment monitored in TIRF buffer (10 mM imidazole pH 7.4, 50 mM KCl, 1 mM MgCl2, 1 mM EGTA, 0.2 mM ATP, 10 mM DTT) with and without TWF-2; single-exponential fit. The settings on record: both partners purified.

B1: C. elegans TWF-2 (6×His-tagged), recombinant (natural protein, UniProt Q20173 1-333, looked up)
chain: MACQTGIRANAALRNALNLGKQAKLRLIKIVVNNEEMTPNYEFAGTANWRDDWRACLPDCVDAYEPCFILFRLNTITEWVLITFVDDRAPVREKMLLAATCATFKSEFGQCYIEHEKHVTDLKDLTLNAFEAWLKAKTELGPMSEVERELHNAQQERAAIAHAGPQHMKGVAFPVDRNAEEALRQLASQKLSFVQLSVDTLNEAIKLEGTLESLEPSQLASKVPRDKPRYTFYNFDHTWEGVPQQCTLFIYSLPSSGSSIKERMLYSSCKGPFLSAAQNQYGVVITNKMEVDARDDLSEKALLEVIHPLPVEAPKQFSRPAPPRAGPRRITKV
notes: TWF-2, the sole twinfilin of C. elegans, recombinant; also called twinfilin; source: E. coli BL21 (pRare), purified (Ni-NTA, size-exclusion chromatography Superdex 75 Increase)
Turning to B1, the “fold acceleration of uncapping of CP from barbed ends (against buffer)” value was greater than 90 fold.
